# Laboratory results as given in the nanobody polyreactivity screen of Harvey et al. (2022).
# Assay: yeast display, Sf9 membrane polyspecificity reagent, FACS + sequencing; frameworks hold sequencing errors
# How it was run: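 After 36–48 hours of galactose induction, yeast (Saccharomyces cerevisiae BJ5465) displaying a synthetic nanobody library were stained at 4 °C for 1 hour with 10% biotinylated, detergent-solubilized Sf9 membrane reagent. Streptavidin microbeads enriched the stained cells before FACS sorting into low and high (top ~1%) gates on anti-HA and streptavidin fluorescence. Each clone's polyreactivity label reflects its gate of origin.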
row,Sequence,polyreactivity (PSR sort gate)
1,QVQLVESGGGLVQAGGSLRLSCAASGSILDYKVMGWYRQPPGKERELVAAIRGGGSTYYADSVKGRFTISRDNAKNTVYLQMNSLKPEVTAVYYCAKDSQTARDFDYWGQGTQVTVSS,low polyreactivity
2,QVHLVESGGGLVQAGCSLRLICAASRYIFGYYAMGWYRQAPGKERELVAAISTDGSTDYADSVKVRFTISRYNANNTVDLQMNRLKPEDSALYYCAKELFIVTNGVYIYDSWGEGTQVTVSS,low polyreactivity
3,QVQLVESGGGLVQAGGSLRLSSAASGSTFDYYAMGWYRQAPGKERELVDGITYSGGTTYYADSVKGRFTISRDNAKNTVYLQMNSLKPEDTAVYYCNAVYDRNFYYWGQGTQVTVSS,high polyreactivity
4,QVQLVESGGGLVQARGSLRLSSAASGSTFVVNAMGWYRQAPGKERELVAAITQSGGSTFYADSVKGRFTISRVNAKNTVYLQMNSLQAEDTAVYYWGQGTQVTVSS,low polyreactivity
5,QVQLVESGGGLVQAGGSLRLSCAASGFIFSRYAMGWYRQAPGKERELVAAISGRGTSTYYADSVKGRFTISRDNAKNTVYLQMNSLKPEDTAVYYCNTYSQPKWGTSDYDYWGQGTQVTVSS,high polyreactivity
6,QVQLVESWGGLVQAGGSLRLSCAASGSTFTTNAMGWYRQAPGKERELVATMSGGGSTYYADSVKGSFTISRDNAKHTVYLQTNSLKPEDTAVYYCAKPTYRFYWGDFDYWGQGTQVTLSS,low polyreactivity
7,QVQLVESGGGLVQAGGSLRLSCAASGFTFVRYTMGWYRQAPGKERELVAAINRSGGNTYYADSVKGRFTISRDNAKKTVYLQMNSLKPEDTAVYYCAAGYYVQVSLKDYYWGQGTQVTVSS,high polyreactivity
8,QVQLVESGGGLVQAGGSLRLSCAASGSIFDTYAMGWYRQAPGKERELVAAISSGGRTYYADSVKGRFSISRDNAKNTVYLQMNSLKPEDTAVYYCAVRPRPGYYYWGQGTQVSVSS,high polyreactivity
9,QVQLVESGGGLVQAGGSLRLSCAASGRIFAFYAMGWYRQAPGKEREFVAAISWSGGSTYYADSVKGRFTISRDNAKNTVYLQMNSLKPEDTAVYYCAARSRVRHSGMNYWGQGTQVTVSS,high polyreactivity
10,QVQLVESGGGLVQAGGSLRLSCAASGRILGVNAMGWYRQAPGKERELVAAINWNGGSTYYADSVKGRFTISRDNAKNTVYLQMNSLKPEDTAVYYCAAERSLYYVYSREYWGQGTQVTVSS,low polyreactivity
11,QVQLVESGGGLVQAGGSLRLSCAASGFTFDIYGMGWYRQAPGKERELVASITSRSARTNYADSVKGRFRISRDNAMNTVYLQMNSLKPEDSAVYYCAADPYTGYTYYWGQVTQVTVSS,high polyreactivity
12,QVQLVESGGGLVQAGGSLRLSCAASGSIFSRYTMGWYRQAPGKERELVARINSSGTSTYYADSVQGRFTIARDNAKNTVYLQMNSLKPEDTAVYYCAAQVDTQYWDFDYWGQGTQVTVSS,low polyreactivity
13,QVQLVESGGGLVQAGGSIRLSCAASGRIFGRYAMGWYRQAPGKEMELVATITWRGGITYYADSVKGRFTISRDNAKNTVYLQLKRLKPEDNAVYYCAAGYGRIPYEYWGQGTQVTVSS,high polyreactivity
14,QVQLVESGGGLVQAGGSLRLSCAASGSIFSRYTMGWYRQATGKERELVAAITSSGGSTYYADSVKGRFTISRDNAKNTVYLQMNSLKPEDTAVYYCNAVRRQWYWTAWFSARGYGYWGQGTQVTVSS,high polyreactivity
15,QVQLVESGGGLVQAGGSLRLSCAASGRIFRRYAMGWYRQAPGKERELVAAISSRGGRTYYADSVKGRFTISRDNAKNTVYLQMNSLKPEETAVYYCNARSFRWCRWLRLPFNYWGQGTQVTVSS,high polyreactivity
16,QVQLVESGGGLVQAGGSLRLSCAASGSTFAYNAMGWYRQAPGKERELVARISSSGDITYYADSVKGRFTISRDNAKNTVYLQMNCLKPEDTAVYYCAKRYLTRYKGYYYWGQGTQVTVSS,high polyreactivity
17,QVQLVESCGGLVQAGGSLRLSCAASGSISFYAMGWYRQAPGQERELVAAITTSGGRTYYADSVKGRFTISRDNAKNTVYLQMNSLKPEDTAVYYCAQQGWYYSNRDGYRWYDYWGQGTQVTVSS,high polyreactivity
